Columns and labels:
[1] = molecular target: T1, SLC39A9 (Homo sapiens, UniProt Q9NUM3); assay: SPR
T1 chain: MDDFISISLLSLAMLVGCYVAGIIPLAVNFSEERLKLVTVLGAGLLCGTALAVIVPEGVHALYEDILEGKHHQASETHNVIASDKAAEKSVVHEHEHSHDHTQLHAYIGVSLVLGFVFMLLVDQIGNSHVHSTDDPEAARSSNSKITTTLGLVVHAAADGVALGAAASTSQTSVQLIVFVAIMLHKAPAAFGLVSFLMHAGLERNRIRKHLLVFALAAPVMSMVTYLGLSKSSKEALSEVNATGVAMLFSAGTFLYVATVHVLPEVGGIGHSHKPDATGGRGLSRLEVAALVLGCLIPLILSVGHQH

[2] = molecular target: T2, NPC1-10×His-Flag (human, UniProt O15118 23-1278); assay: SPR; settings: both partners purified
T2 construct: also called purified NPC1-Flag; full-length NPC1 protein
T2 sequence (looked up): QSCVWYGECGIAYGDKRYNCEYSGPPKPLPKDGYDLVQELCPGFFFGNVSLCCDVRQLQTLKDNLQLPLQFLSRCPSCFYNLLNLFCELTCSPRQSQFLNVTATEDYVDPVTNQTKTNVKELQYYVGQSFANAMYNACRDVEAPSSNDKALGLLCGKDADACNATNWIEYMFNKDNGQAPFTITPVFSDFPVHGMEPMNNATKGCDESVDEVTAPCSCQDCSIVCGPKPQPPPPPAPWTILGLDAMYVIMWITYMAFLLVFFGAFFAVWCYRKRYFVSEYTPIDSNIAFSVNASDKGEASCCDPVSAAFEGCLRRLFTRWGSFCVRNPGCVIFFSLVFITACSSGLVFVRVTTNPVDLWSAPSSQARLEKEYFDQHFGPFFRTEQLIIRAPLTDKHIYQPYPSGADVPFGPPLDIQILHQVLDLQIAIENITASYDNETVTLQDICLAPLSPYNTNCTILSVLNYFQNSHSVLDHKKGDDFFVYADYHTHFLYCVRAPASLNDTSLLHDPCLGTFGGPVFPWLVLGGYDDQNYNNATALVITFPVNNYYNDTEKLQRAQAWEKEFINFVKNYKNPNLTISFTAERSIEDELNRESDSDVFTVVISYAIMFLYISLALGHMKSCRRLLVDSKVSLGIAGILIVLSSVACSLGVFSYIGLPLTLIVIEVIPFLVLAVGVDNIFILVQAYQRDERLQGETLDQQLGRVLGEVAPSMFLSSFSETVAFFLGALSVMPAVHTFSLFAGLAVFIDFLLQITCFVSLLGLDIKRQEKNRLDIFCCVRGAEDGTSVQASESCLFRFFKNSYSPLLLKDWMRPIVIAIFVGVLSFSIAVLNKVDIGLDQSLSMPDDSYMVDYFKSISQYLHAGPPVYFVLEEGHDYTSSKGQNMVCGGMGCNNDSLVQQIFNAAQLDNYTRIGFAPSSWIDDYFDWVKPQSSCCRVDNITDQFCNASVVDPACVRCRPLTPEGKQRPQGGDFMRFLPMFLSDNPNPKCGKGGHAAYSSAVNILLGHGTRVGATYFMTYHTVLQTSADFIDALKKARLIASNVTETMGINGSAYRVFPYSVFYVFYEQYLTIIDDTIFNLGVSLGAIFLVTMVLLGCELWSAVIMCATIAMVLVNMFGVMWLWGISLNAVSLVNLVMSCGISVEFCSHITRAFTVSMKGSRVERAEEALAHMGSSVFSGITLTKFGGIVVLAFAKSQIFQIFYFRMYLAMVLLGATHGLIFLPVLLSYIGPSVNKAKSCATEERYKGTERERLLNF

B1: EBOV GP (protein)
chain: IPLGVIHNSTLQVSDVDKLVCRDKLSSTNQLRSVGLNLEGNGVATDVPSATKRWGFRSGVPPKVVNYEAGEWAENCYNLEIKKPDGSECLPAAPDGIRGFPRCRYVHKVSGTGPCAGDFAFHKEGAFFLYDRLASTVIYRGTTFAEGVVAFLILPQAKKDFFSSHPLREPVNATEDPSSGYYSTTIRYQATGFGTNETEYLFEVDNLTYVQLESRFTPQFLLQLNETIYTSGKRSNTTGKLIWKVNPEIDTTIGEWAFWETKKNLTRKIRSEELSFTVVSNGAKNISGQSPARTSSDPGTNTTTEDHKIMASENSSAMVQVHSQGREAAVSHLTTLATISTSPQSLTTKPGPDNSTHNTPVYKLDISEATQVEQHHRRTDNDSTASDTPSATTAAGPPKAENTNTSKSTDFLDPATTTSPQNHSETAGNNNTHHQDTGEESASSGKLGLITNTIAGVAGLITGGRRTRREAIVNAQPKCNPNLHYWTTQDEGAAIGLAWIPYFGPAAEGIYIEGLMHNQDGLICGLRQLANETTQALQLFLRATTELRTFSILNRKAIDFLLQRWGGTCHILGPDCCIEPHDWTKNITDKIDQIIHDFVDKTLPDQGDNDNWWTGWRQWIPAGIGVTGVIIAVIALFCICKFVF
For B1, the Kd [1] was 3 µM.

B2: primed EBOV GP (GPcl) (domain or fragment)
chain 1: IPLGVIHNSTLQVSDVDKLVCRDKLSSTNQLRSVGLNLEGNGVATDVPSATKRWGFRSGVPPKVVNYEAGEWAENCYNLEIKKPDGSECLPAAPDGIRGFPRCRYVHKVSGTGPCAGDFAFHKEGAFFLYDRLASTVIYRGTTFAEGVVAFLILPQ
chain 2: EAIVNAQPKCNPNLHYWTTQDEGAAIGLAWIPYFGPAAEGIYIEGLMHNQDGLICGLRQLANETTQALQLFLRATTELRTFSILNRKAIDFLLQRWGGTCHILGPDCCIEPHDWTKNITDKIDQIIHDFVDKTLPDQGDNDNWWTGWRQ
With B2 the Kd [2] was 18.5 µM.

Source: paper PMC11341029 (PLOS Pathogens, 2024)
